The text below walks through data of patent US20250332277A1 (Eli Lilly, published 2025).

The target of assay [1] is T1, human PTK-7 on cells (OV90-PTK-7, NCI-H446, OVCAR-3) (human, UniProt Q13308 31-1070).
T1 sequence: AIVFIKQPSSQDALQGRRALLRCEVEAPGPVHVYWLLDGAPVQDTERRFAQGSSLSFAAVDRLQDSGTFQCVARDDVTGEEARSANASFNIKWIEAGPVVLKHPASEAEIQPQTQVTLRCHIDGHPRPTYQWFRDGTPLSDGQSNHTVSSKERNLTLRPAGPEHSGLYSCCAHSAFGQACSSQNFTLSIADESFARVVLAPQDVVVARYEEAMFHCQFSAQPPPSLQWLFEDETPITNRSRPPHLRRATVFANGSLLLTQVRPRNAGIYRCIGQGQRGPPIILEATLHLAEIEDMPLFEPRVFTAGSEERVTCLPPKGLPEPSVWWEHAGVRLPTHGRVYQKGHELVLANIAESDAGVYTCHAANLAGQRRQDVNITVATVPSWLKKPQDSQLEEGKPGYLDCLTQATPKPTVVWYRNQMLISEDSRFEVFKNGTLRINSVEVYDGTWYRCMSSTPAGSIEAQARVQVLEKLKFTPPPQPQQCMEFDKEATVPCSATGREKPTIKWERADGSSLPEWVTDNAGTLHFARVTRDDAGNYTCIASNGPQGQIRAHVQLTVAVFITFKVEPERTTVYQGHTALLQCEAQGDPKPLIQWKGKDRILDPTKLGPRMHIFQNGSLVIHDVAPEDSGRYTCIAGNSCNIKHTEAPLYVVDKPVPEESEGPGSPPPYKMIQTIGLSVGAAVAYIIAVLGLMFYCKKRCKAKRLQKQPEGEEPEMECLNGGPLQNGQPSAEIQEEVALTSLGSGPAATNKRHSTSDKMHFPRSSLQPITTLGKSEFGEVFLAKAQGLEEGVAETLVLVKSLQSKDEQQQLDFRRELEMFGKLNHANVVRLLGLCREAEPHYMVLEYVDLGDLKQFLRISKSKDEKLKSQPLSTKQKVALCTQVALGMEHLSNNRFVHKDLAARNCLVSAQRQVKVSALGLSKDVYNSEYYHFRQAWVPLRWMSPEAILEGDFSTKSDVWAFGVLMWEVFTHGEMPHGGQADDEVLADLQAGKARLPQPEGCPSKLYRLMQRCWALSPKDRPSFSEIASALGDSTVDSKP
Put plainly: cell-based or functional assay.

Assay [2] addresses T2, recombinant human PTK7 (Acro Biosystems Cat. No. PT7-H52H3) (human, UniProt Q13308 31-704).
T2 construct: Bought recombinant protein; also called human PTK7 analyte
T2 sequence: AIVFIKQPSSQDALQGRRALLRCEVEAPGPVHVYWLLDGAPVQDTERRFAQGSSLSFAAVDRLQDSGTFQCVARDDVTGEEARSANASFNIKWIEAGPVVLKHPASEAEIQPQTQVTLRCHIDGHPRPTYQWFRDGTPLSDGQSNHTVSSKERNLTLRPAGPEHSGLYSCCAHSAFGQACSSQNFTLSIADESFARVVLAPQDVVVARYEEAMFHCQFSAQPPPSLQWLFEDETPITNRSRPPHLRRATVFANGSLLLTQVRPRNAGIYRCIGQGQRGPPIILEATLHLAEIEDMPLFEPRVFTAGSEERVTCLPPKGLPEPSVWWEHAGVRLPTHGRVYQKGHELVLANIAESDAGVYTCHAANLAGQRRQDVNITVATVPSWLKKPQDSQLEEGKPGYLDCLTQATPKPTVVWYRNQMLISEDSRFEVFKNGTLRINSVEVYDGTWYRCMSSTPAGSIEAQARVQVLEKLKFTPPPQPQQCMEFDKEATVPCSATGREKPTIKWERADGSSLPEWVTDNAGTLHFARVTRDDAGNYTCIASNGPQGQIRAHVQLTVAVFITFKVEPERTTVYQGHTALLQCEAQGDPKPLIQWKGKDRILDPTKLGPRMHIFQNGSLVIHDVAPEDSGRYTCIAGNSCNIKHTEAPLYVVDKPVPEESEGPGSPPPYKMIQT
In words: SPR, Biacore 8K+, ADC captured by anti-human Fc, human PTK7 as analyte, 37 C, 1:1 model. The method, then: A Biacore 8K+ instrument (Cytiva, Marlborough, MA) was used to determine kinetics and affinity parameters for the binding interactions of ADCs binding to recombinant human PTK7 (Acro Biosystems Cat. No. PT7-H52H3, Newark, DE).
In each analysis cycle, a different ADC was captured on flow cell 2 of each channel by injecting a 5 μg/mL solution at 10 μL/min for 2 minutes. After capture, the same analyte was injected on flow cells 1 and 2 in all 8 channels for 2 minutes at 30 μL/min and dissociation was monitored for 10 minutes. After dissociation, all surfaces were regenerated with three consecutive 1-minute injections of 75 mM phosphoric acid at 10 μL/min. ADC capture and analyte cycles were repeated to obtain human PTK7 analyte binding of each ADC at analyte concentrations of 0, 2.47, 7.41, 22.2, 66.7, 200, and 600 nMs.
Sensorgram data were reference subtracted and blank subtracted, then globally fit with the default 1:1 binding model in Biacore Insight Evaluation Software v3.0.12.15655, as shown in Table 4.

B1: Ab4-PSAR10-VA-exatecan (other)
heavy: EVQLVESGGGLVKPGGSLRLSCAASGFTFSSYSMNWVRQAPGKGLEWVSSIDSSSSFIYYADSVKGRFTISRDNAKNSLYLQMNSLRAEDTAVYYCARGTGLFDFWGQGTLVTVSSASTKGPSVFPLAPSSKSTSGGTAALGCLVKDYFPEPVTVSWNSGALTSGVHTFPAVLQSSGLYSLSSVVTVPSSSLGTQTYICNVNHKPSNTKVDKRVEPKSCDKTHTCPPCPAPEAAGGPSVFLFPPKPKDTLMISRTPEVTCVVVSVSHEDPEVKFNWYVDGVEVHNAKTKPREEQYNSTYRVVSVLTVLHQDWLNGKEYKCKVSNKALPAPIEKTISKAKGQPREPQVYTLPPSREEMTKNQVSLTCLVKGFYPSDIAVEWESNGQPENNYKTTPPVLDSDGSFFLYSKLTVDKSRWQQGNVFSCSVMHEALHNHYTQKSLSLSPGK
light: EIVLTQSPGTLSLSPGERATLSCRASQSFSSSYLAWYQQKPGQAPRLLIYGASSRATGIPDRFSGSGSGTDFTLTISRLEPEDFAVYYCQQYGRTPWTFGQGTKVEIKRTVAAPSVFIFPPSDEQLKSGTASVVCLLNNFYPREAKVQWKVDNALQSGNSQESVTEQDSKDSTYSLSSTLTLSKADYEKHKVYACEVTHQGLSSPVTKSFNRGEC
modifications: PSAR10-VA-exatecan linker-payload (Formula XV) on cysteine thiols after full reduction of the antibody (DAR 8 procedure); positions not stated for this ADC
notes: Antibody-drug conjugate of Ab4; also called Ab4-VA-Exatecan
The term Kd denotes the free concentration of one partner at which half of the binding sites on the other are occupied at equilibrium, for simple one-to-one binding. One may read the koff as a measure of how fast the partners let go of each other. By kon is commonly meant a measure of how fast the partners come together. Regarding B1, the “Cytotoxicity IC50, OVCAR-3 cells (CellTiter-Glo, 7 days)” value in assay [1] is 2.02 nM. Moreover, in assay [2], the equilibrium dissociation constant (Kd) was determined as 101 nM, the koff was found to be 0.0372 s⁻¹ and the kon stood at 368000 M⁻¹ s⁻¹.
